Assays:
[1] = molecular target: IL-6 (mature human interleukin-6) (Homo sapiens) (UniProt P05231); assay: filter
[2] = molecular target: IL-6 (mature human interleukin-6) (Homo sapiens) (UniProt P05231); assay: cell_activity; details: 2'-OMe at C3,G6,A16,A19,C20,C28, STAT3 gene reporter assay
[3] = molecular target: T1, IL-6 (Macaca fascicularis) (UniProt P79341); assay: filter; details: Bn-dU at 7,8,14,15,22,23,27,30; PE-dU at 9; Nap-dU at 12; 2'-OMe at C3,G6,A16,A19,C20,C28
T1 sequence: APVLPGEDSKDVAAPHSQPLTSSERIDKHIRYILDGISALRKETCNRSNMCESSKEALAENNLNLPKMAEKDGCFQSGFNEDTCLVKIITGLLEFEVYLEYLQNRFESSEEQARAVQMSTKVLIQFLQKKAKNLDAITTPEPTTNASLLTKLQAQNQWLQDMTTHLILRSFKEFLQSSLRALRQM

[4] = molecular target: T1, IL-6 (Macaca fascicularis); assay: cell_activity; details: Bn-dU at 7,8,14,15,22,23,27,30; PE-dU at 9; Nap-dU at 12; 2'-OMe at C3,G6,A16,A19,C20,C28; gene reporter assay

Row | Sequence | Kd ([1]; all U are Nap-dU) | further results
1 | GATGTGAGTGTGTGACGAGGGGGUUAUGUAGCGAGUGCGUAAGGCGGUGGGCGAGGGAUCACAGAGAAGAAACAAGACC [2574-49] | – | Kd ([1]; all U are Nap-dU (5-naphthylmethylcarboxamide-dU), SB17T-0.002 (125 mM NaCl, 5 mM KCl, 5 mM MgCl2), 37 C, ZORBAX capture): 2 nM
2 | GATGTGAGTGTGTGACGAGUGGGCAGGUUUGGUAUUAACACGUUAAGUCGUGGGGUCGCACAGAGAAGAAACAAGACC [2573-20] | – | Kd ([1]; all U are Bn-dU (5-benzylcarboxamide-dU), SB17T-0.002 (125 mM NaCl, 5 mM KCl, 5 mM MgCl2), 37 C, ZORBAX capture): 3 nM
3 | GGCAGGUUUGGUAUUAACACGUUAAGUCGUGG [2573-20_15] | – | Kd ([1]; all U are Bn-dU): 1 nM
4 | GGCAGGUUUGGUAUUAACACGUUAAGUCGUGG [2573-20_135] | – | IC50 ([2]; all U are Bn-dU): 0.24 nM
5 | GGCAGGUUUGGUAUUAACACGUUAAGUCGUGG [2573-20_136] | – | Kd [3]: 2 nM; IC50 [4]: 9.7 nM; IC50 ([2]; Bn-dU at 7,8,14,15,22,23,27,30, PE-dU at 9, Nap-dU at 12): 0.5 nM
6 | GGCAGGUUUGGUAUUAACACGUUAAGUCGUGGG [2573-20_14] | – | Kd ([1]; all U are Bn-dU): 2.8 nM
7 | GGCAGGUUUGGUAUUAACACGUUAAGUCGUGGGG [2573-20_13] | – | Kd ([1]; all U are Bn-dU): 1.9 nM
8 | GGCAGGUUUGGUAUUAACACGUUAAGUCGUGGGGU [2573-20_12] | – | Kd ([1]; all U are Bn-dU): 1.4 nM
9 | GGCAGGUUUGGUAUUAACACGUUAAGUCGUGGGGUC [2573-20_3] | – | Kd ([1]; all U are Bn-dU): 1.5 nM
10 | GGCAGGUUUGGUGUGG [2573-20_324 Bn7 to MBn variant] | – | Kd ([1]; G-G-C1-A-G-G1-MBn-Bn-Pe-G-G-Nap-C3-G-Bn-G-G (1=2'-OMe, C3=spacer), 100-fold improvement over parent stated): 1 nM
11 | GGCAGGUUUGGUGUGG [2573-20_324 G-quartet fragment] | – | Kd ([1]; G-G-C1-A-G-G1-Bn-Bn-Pe-G-G-Nap-C3-G-Bn-G-G (1=2'-OMe, C3=spacer), p263 states approximately 200 nM): 270 nM
12 | GGGGUUAUGUAGCGAGUGCGUAAGGCGGUG [2574-49_14] | 0.7 nM | –
13 | GGGGUUAUGUAGCGAGUGCGUAAGGCGGUGG [2574-49_13] | 1.1 nM | –
14 | GGGGUUAUGUAGCGAGUGCGUAAGGCGGUGGG [2574-49_12] | 1.1 nM | –
15 | GGGGUUAUGUAGCGAGUGCGUAAGGCGGUGGGC [2574-49_11] | 1.5 nM | –
16 | GGGGUUAUGUAGCGAGUGCGUAAGGCGGUGGGCG [2574-49_10] | 1.9 nM | –
17 | GGGGUUAUGUAGCGAGUGCGUAAGGCGGUGGGCGA [2574-49_9] | 1.8 nM | –
18 | GGGGUUAUGUAGCGAGUGCGUAAGGCGGUGGGCGAG [2574-49_8] | 1.2 nM | –
19 | GGGGUUAUGUAGCGAGUGCGUAAGGCGGUGGGCGAGG [2574-49_7] | 2.6 nM | –
20 | GGGGUUAUGUAGCGAGUGCGUAAGGCGGUGGGCGAGGG [2574-49_6] | 3.5 nM | –
21 | GGGGUUAUGUAGCGAGUGCGUAAGGCGGUGGGCGAGGGA [2574-49_3] | 4.1 nM | –
22 | GGGUUAUGUAGCGAGUGCGUAAGGCGGUGGGCGAGGGA [2574-49_15] | 2.1 nM | –
23 | GGUUAUGUAGCGAGUGCGUAAGGCGGUGGGCGAGGGA [2574-49_16] | 3.9 nM | –
24 | GUUAUGUAGCGAGUGCGUAAGGCGGUGGGCGAGGGA [2574-49_17] | 17 nM | –
25 | UUAUGUAGCGAGUGCGUAAGGCGGUGGGCGAGGGA [2574-49_18] | 19 nM | –
